The source of these data is the supplement of paper PMC10126150.

± gives the standard deviation of the averaged measurements.
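Further: ATP exposure 15 min at 22 °C before imaging.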

For this data set, the system named is ATP. Kind of data set: switch fluorescence ratio, 500 uM ATP over buffer (Cy3 cluster intensity, sum of 5 cycles each) (fold (ratio)); higher = stronger signal-on switching upon ATP binding; sequences stand for … in TCGTCGGCAGCGTCAGATGTGTATAAGAGACAGTTTTTTTTTTTTTTTTTTTTTTTTT…TC. As to conditions: aptamer strand: ATP DNA aptamer (quencher-CACCTGGGGGAGTATTGCGGAGGAAGG + anchor), 100 nM annealed; ATP concentration: 500 uM. Summed up: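 After annealing to 100 nM quencher-labelled ATP aptamer, Cy3-labelled switching-strand clusters on a modified Illumina MiSeq flow-cell were imaged in selection buffer. A second image followed after 15 min with 500 uM ATP at 22 °C, and five such buffer/ATP cycles were done, each separated by NaOH stripping and re-annealing. The fluorescence ratio, averaged per switch-domain sequence, is summed target-cycle over summed buffer-cycle Cy3 intensity per cluster, with clusters outside 100-1000 RFU excluded.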
AACTGGGAGA: the switch fluorescence ratio amounted to 0.98933 ± 0.0002.

Consider TTGGAATAAA, for which the switch fluorescence ratio was determined as 1.02 ± 0.015.

For the sequence ACCGGGGGTA, the switch fluorescence ratio is 0.991 ± 0.024.

With TGGCTAAAAT, the switch fluorescence ratio is 0.998 ± 0.023.

As for AGAGCGGTTG, the switch fluorescence ratio is 0.969 ± 0.037.

Regarding GGTTTCTAAG, the switch fluorescence ratio is 1.01 ± 0.042.

With AACAGGAAGC, the switch fluorescence ratio worked out at 1.01 ± 0.017.

Take ACTTTTACAT: the switch fluorescence ratio was found to be 1.13 ± 0.025.

Take CATACTTTGG: the switch fluorescence ratio amounted to 1.01 ± 0.016.

For GGCCGTCGGA, the switch fluorescence ratio came out at 1.06 ± 0.091.

Regarding CAGGGCGTTC, the switch fluorescence ratio worked out at 0.9856 ± 0.0044.

Turning to TCCTGGAGCG, the switch fluorescence ratio was 1.08 ± 0.068.

Consider AGGGGGCGCA, for which the switch fluorescence ratio is 0.991 ± 0.051.

As for CTGAAATTTT, the switch fluorescence ratio came out at 1.0192 ± 0.00063.

On to TTTCATTTCT, for which the switch fluorescence ratio is 1 ± 0.018.

For AGGGAGAAGA, the switch fluorescence ratio is 1.005 ± 0.0077.

On to CGAGATGGTT, for which the switch fluorescence ratio is 0.973 ± 0.025.

With TTGCAGGTGT, the switch fluorescence ratio was determined as 1.85 ± 0.47.

In the case of GATTGCCAGG, the switch fluorescence ratio came out at 1.05 ± 0.035.

With TTTTGTGAGT, the switch fluorescence ratio stood at 1.01 ± 0.04.

In the case of TTCCATTTGC, the switch fluorescence ratio was determined as 1.05 ± 0.074.

For GCTGAAGGGA, the switch fluorescence ratio stood at 0.99 ± 0.042.

CCCTTATGGT: the switch fluorescence ratio stood at 0.9932 ± 0.0086.

As for TGGGTTGGTA, the switch fluorescence ratio worked out at 1.02 ± 0.02.

In the case of TTTACTTGCG, the switch fluorescence ratio came to 0.9759 ± 0.0038.

Regarding GCTGGTATAT, the switch fluorescence ratio was found to be 1.01 ± 0.016.

For GATGATCGGG, the switch fluorescence ratio was 1.02 ± 0.013.

For CTTAAATATG, the switch fluorescence ratio came to 1 ± 0.012.

With ATGGTACCGT, the switch fluorescence ratio was determined as 1.02 ± 0.014.

Consider CGGCGTAAAA, for which the switch fluorescence ratio amounted to 1.13 ± 0.21.

On to TGCCTAAGTA, for which the switch fluorescence ratio is 1.02 ± 0.018.

For the sequence TATTTGTACG, the switch fluorescence ratio stood at 1.018 ± 0.0046.

Turning to ATAGGTGAGA, the switch fluorescence ratio was 1.06 ± 0.02.

On to AAACGTCTGA, for which the switch fluorescence ratio stood at 0.9936 ± 0.0016.

For the sequence GGGTGGGTCA, the switch fluorescence ratio stood at 1.01 ± 0.048.

Turning to CGGAGTGCGG, the switch fluorescence ratio came to 0.983 ± 0.064.

On to GTGAGCTGAT, for which the switch fluorescence ratio came out at 1.023 ± 0.0081.

For AGAACGGTAT, the switch fluorescence ratio was 1.048 ± 0.0034.

As for GGGAGTGTCA, the switch fluorescence ratio is 0.981 ± 0.0045.

In the case of ACGAATTGTT, the switch fluorescence ratio stood at 0.9848 ± 0.0026.

Consider ATCGACTTTT, for which the switch fluorescence ratio was 1.015 ± 0.003.

With GGTTTAAATG, the switch fluorescence ratio was 1.0317 ± 0.00089.

On to ATGCTTGATT, for which the switch fluorescence ratio is 1.017 ± 0.0041.

ATCTGAACGT: the switch fluorescence ratio was determined as 1.02 ± 0.074.

For the sequence TTTTGGAAAC, the switch fluorescence ratio is 1.11 ± 0.17.

For the sequence GTGGTTGTTT, the switch fluorescence ratio turned out to be 1.01 ± 0.049.

For GTGGGGGAA, the switch fluorescence ratio was found to be 0.994 ± 0.034.

As to TCCCCAATAA, the switch fluorescence ratio is 3.11 ± 0.39.

In the case of TAACGCTGTT, the switch fluorescence ratio was 1.01 ± 0.0068.

Regarding TCCAGATTTT, the switch fluorescence ratio is 1 ± 0.012.

GGAATCGGTC: the switch fluorescence ratio was determined as 1 ± 0.051.

As for GGGAGGGTTA, the switch fluorescence ratio was 0.996 ± 0.055.

As for AGATATGGCT, the switch fluorescence ratio came out at 0.979 ± 0.038.

For ACGGACAGTT, the switch fluorescence ratio is 1.13 ± 0.029.

As to GTGTTCGCTT, the switch fluorescence ratio worked out at 0.984 ± 0.0099.

Regarding GAGGTTGATC, the switch fluorescence ratio came to 0.983 ± 0.056.

On to GGCAGATTCC, for which the switch fluorescence ratio was 1.05 ± 0.019.

In the case of CAGGGAAGG, the switch fluorescence ratio is 0.995 ± 0.016.

In the case of ATATGTGACT, the switch fluorescence ratio was found to be 0.977 ± 0.014.

For TGGGGAGGAA, the switch fluorescence ratio turned out to be 1 ± 0.011.

For the sequence TTTTTTTGAC, the switch fluorescence ratio stood at 1.01 ± 0.038.

For ATTCGCAGCA, the switch fluorescence ratio stood at 1.22 ± 0.056.

In the case of AATTCACGTT, the switch fluorescence ratio is 1.17 ± 0.19.

For GCTAGTGAAC, the switch fluorescence ratio was determined as 1.029 ± 0.0091.

Regarding GCGTTTGCGC, the switch fluorescence ratio came out at 1.03 ± 0.016.

TTGGACTCTT: the switch fluorescence ratio was found to be 0.977 ± 0.038.

For the sequence TGGGTCACAA, the switch fluorescence ratio stood at 0.992 ± 0.024.

Consider GTTATAGCTA, for which the switch fluorescence ratio was 0.9859 ± 0.0061.

On to ACAAAGGTGT, for which the switch fluorescence ratio was determined as 1.29 ± 0.015.

As to TGATCGGGGG, the switch fluorescence ratio came out at 0.982 ± 0.064.

For the sequence TGGCTTGGCG, the switch fluorescence ratio was found to be 1.01 ± 0.072.

Regarding ACGGTCTGGA, the switch fluorescence ratio is 1 ± 0.041.

With TTCCTGCGCT, the switch fluorescence ratio amounted to 1.77 ± 1.

Turning to CTCATGTAAG, the switch fluorescence ratio amounted to 1.009 ± 0.0014.

Regarding ATTTAATGGG, the switch fluorescence ratio came out at 0.99 ± 0.035.

Turning to AGAGCCGCTG, the switch fluorescence ratio amounted to 1.02 ± 0.068.

TTTTTGAAGA: the switch fluorescence ratio came to 0.986 ± 0.046.

Regarding AATGAGGGGG, the switch fluorescence ratio was 0.978 ± 0.05.
